Experimental data as given in US20230181639A1 (published 2023).

Key:
[1] = biological target: T1, EBV latent membrane protein LMP2 (wild-type epitope, LSK; as in SEQ ID NO: 27) peptide on HLA-A*11:01 (human); experiment: multimer staining
T1 peptide: SSCSSCPLSK

[2] = biological target: T2, EBV latent membrane protein LMP2 (mutant-type epitope, LTK; as in SEQ ID NO: 28) peptide on HLA-A*11:01 (human); experiment: multimer staining
T2 peptide: SSCSSCPLTK

B1: E149 (TCR, V domains shown)
Valpha: GIQVEQSPPDLILQEGANSTLRCNFSDSVNNLQWFHQNPWGQLINLFYIPSGTKQNGRLSATTVATERYSLLYISSSQTTDSGVYFCAVVDNNDMRFGAGTRLTVKP
Vbeta: DTEVTQTPKHLVMGMTNKKSLKCEQHMGHRAMYWYKQKAKKPPELMFVYSYEKLSINESVPSRFSPECPNSSLLNLHLHALQPEDSALYLCASSPGRWYEQFFGPGTRLTVL
B1: recognises [1]; recognises [2].

B2: E315 (TCR, V domains shown)
Valpha: KQEVTQIPAALSVPEGENLVLNCSFTDSAIYNLQWFRQDPGKGLTSLLLIQSSQREQTSGRLNASLDKSSGRSTLYIAASQPGDSATYLCAGKTSYDKVIFGPGTSLSVIP
Vbeta: EAGVAQSPRYKIIEKRQSVAFWCNPISGHATLYWYQQILGQGPKLLIQFQNNGVVDDSQLPKDRFSAERLKGVDSTLKIQPAKLEDSAVYLCASSVFPTSVEQYFGPGTRLTVT
B2: recognises [1]; recognises [2].

B3: E316 (TCR, V domains shown)
Valpha: AQKITQTQPGMFVQEKEAVTLDCTYDTSDQSYGLFWYKQPSSGEMIFLIYQGSYDEQNATEGRYSLNFQKARKSANLVISASQLGDSAMYFCAMVSGAGGGADGLTFGKGTHLIIQP
Vbeta: DGGITQSPKYLFRKEGQNVTLSCEQNLNHDAMYWYRQDPGQGLRLIYYSQIVNDFQKGDIAEGYSVSREKKESFPLTVTSAQKNPTAFYLCASSIGVGLSNTEAFFGQGTRLTVV
B3: recognises [1]; recognises [2].

B4: E318 (TCR, V domains shown)
Valpha: GENVEQHPSTLSVQEGDSAVIKCTYSDSASNYFPWYKQELGKRPQLIIDIRSNVGEKKDQRIAVTLNKTAKHFSLHITETQPEDSAVYFCAASNRDDKIIFGKGTRLHILP
Vbeta: DAGVIQSPRHEVTEMGQEVTLRCKPISGHNSLFWYRQTMMRGLELLIYFNNNVPIDDSGMPEDRFSAKMPNASFSTLKIQPSEPRDSAVYFCASSLGAGHLWGYTFGSGTRLTVV
B4: recognises [1]; recognises [2].
